Source: the supplement of paper PMC9233669
This sample holds only a part of the variants without activity.

Legend:
biotinyl-Phe-oxazolone = assay: self-aminoacylation, catalytic enhancement (BFO) (fold over background); higher = more active; k-Seq, kA / k0A0; sequences stand for … in GGGAAUGGAUCCACAUCUACGAAUUC…UUCACUGCAGACUUGACGAAGCUG
Summary of the method: (§1)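 Mutagenized RNA pools (0.43 μM; 21-nt variable region) were treated with 2–1250 μM of each biotinyl-aminoacyl-oxazolone. Conditions were 50 μL HEPES/NaCl/KCl/MgCl2/CaCl2 buffer, 5% acetonitrile, pH 6.9–7.0, room temperature, 90 minutes. Catalytic enhancement, the median kA relative to the uncatalyzed rate, was derived from streptavidin capture, qPCR and Illumina sequencing.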

biotinyl-Leu-oxazolone = assay: self-aminoacylation, catalytic enhancement (BLO) (fold over background); higher = more active; k-Seq, kA / k0A0; sequences stand for … in GGGAAUGGAUCCACAUCUACGAAUUC…UUCACUGCAGACUUGACGAAGCUG
Summary of the method: as §1

biotinyl-Ile-oxazolone = assay: self-aminoacylation, catalytic enhancement (BIO) (fold over background); higher = more active; k-Seq, kA / k0A0; sequences stand for … in GGGAAUGGAUCCACAUCUACGAAUUC…UUCACUGCAGACUUGACGAAGCUG
Summary of the method: as §1

biotinyl-Met-oxazolone = assay: self-aminoacylation, catalytic enhancement (BMO) (fold over background); higher = more active; k-Seq, kA / k0A0; sequences stand for … in GGGAAUGGAUCCACAUCUACGAAUUC…UUCACUGCAGACUUGACGAAGCUG
Summary of the method: as §1

biotinyl-Trp-oxazolone = assay: self-aminoacylation, catalytic enhancement (BWO) (fold over background); higher = more active; k-Seq, kA / k0A0; sequences stand for … in GGGAAUGGAUCCACAUCUACGAAUUC…UUCACUGCAGACUUGACGAAGCUG
Summary of the method: as §1

biotinyl-Val-oxazolone = assay: self-aminoacylation, catalytic enhancement (BVO) (fold over background); higher = more active; k-Seq, kA / k0A0; sequences stand for … in GGGAAUGGAUCCACAUCUACGAAUUC…UUCACUGCAGACUUGACGAAGCUG
Summary of the method: as §1

Row | Sequence | self-aminoacylation (biotinyl-Phe-oxazolone) | self-aminoacylation (biotinyl-Leu-oxazolone) | self-aminoacylation (biotinyl-Ile-oxazolone) | self-aminoacylation (biotinyl-Met-oxazolone) | self-aminoacylation (biotinyl-Trp-oxazolone) | self-aminoacylation (biotinyl-Val-oxazolone)
1 | ACGUUUGCUACUAGUCGCAAG [Fam3.1 aminoacylation ribozyme variant] | 2.4 | 1.7 | 1.76 | 2.16 | 1.31 | 1.47
2 | CUACUUCAAACCAUUGGUCUG [Fam1A.1 aminoacylation ribozyme variant] | 1.03 | 0.782 | 0.883 | 0.726 | 0.564 | 0.891
3 | AAGUUUGCUAUUCGUCGCAAG [Fam3.1 aminoacylation ribozyme variant] | 0.857 | 0.902 | 0.985 | 1.23 | 0.872 | 0.862
4 | CAACACUUCAAGCAUUCGGUC [Fam1B.1 aminoacylation ribozyme variant] | 1.04 | 1.58 | 1.71 | 1.61 | 1.83 | 1.76
5 | AUUCGCCUAGGUCAUCGGGUC [Fam2.2 aminoacylation ribozyme variant] | 6.94 | 1.88 | 1.58 | 1.62 | 1.76 | 1.91
6 | AUUCACCUCAGUCAUCGGGUG [Fam2.2 aminoacylation ribozyme variant] | 56.6 | 8.93 | 4.75 | 7.34 | 6.63 | 4.58
7 | CCACACGUCAAGCAUUCGGUC [Fam1B.1 aminoacylation ribozyme variant] | 5.03 | 1.71 | 2.03 | 2.23 | 2.16 | 3.21
8 | CCCCACUUCAAGCAUUCGGUC [Fam1B.1 aminoacylation ribozyme variant] | 10.9 | 2.48 | 2.65 | 2.61 | 5.46 | 3.06
9 | CUACUUCAAGCAAUGGGUCUG [Fam1A.1 aminoacylation ribozyme variant] | 0.863 | 0.852 | 1.02 | 0.934 | 1.09 | 0.998
10 | AUUACCUUGGUCAUCGAGCGA [Fam2.1 aminoacylation ribozyme variant] | 1.02 | 1.74 | 1.55 | 1.5 | 1.57 | 1.83
11 | CCACACUUCAAGCUAUCCGUC [Fam1B.1 aminoacylation ribozyme variant] | 0.797 | 0.736 | 1.04 | 0.761 | 1.13 | 1.27
12 | CCCCACUUCAAGCAAGCGGUC [Fam1B.1 aminoacylation ribozyme variant] | 9.34 | 2.61 | 2.15 | 2.33 | 5 | 2.38
13 | CCACUUCAAACAAUCUGUCUG [Fam1A.1 aminoacylation ribozyme variant] | 2.99 | 0.642 | 0.723 | 0.511 | 1.78 | 0.641
14 | AAGUUUGCUAAUAGUGGAAAG [Fam3.1 aminoacylation ribozyme variant] | 0.794 | 0.876 | 1.21 | 1.2 | 0.946 | 0.944
15 | AUUCACCUAGGUCACCGGGUA [Fam2.2 aminoacylation ribozyme variant] | 14 | 3.2 | 2.6 | 2.79 | 3.11 | 2.46
16 | CUACUUCAAACAAUCUGUAUG [Fam1A.1 aminoacylation ribozyme variant] | 0.672 | 0.607 | 0.642 | 0.647 | 0.471 | 0.73
17 | AAGGUUGUUAAUAGUCGCAAG [Fam3.1 aminoacylation ribozyme variant] | 2.51 | 1.69 | 1.86 | 1.72 | 1.53 | 1.39
18 | CUACUCCAAACAGUCGGUCUG [Fam1A.1 aminoacylation ribozyme variant] | 3.1 | 1.1 | 0.953 | 0.958 | 0.323 | 1.06
19 | AAGUUUGCUACCAGUCGCAAG [Fam3.1 aminoacylation ribozyme variant] | 0.754 | 0.891 | 1.12 | 1.47 | 0.552 | 0.912
20 | AUUCACCUAAGUAAUCGGGUG [Fam2.2 aminoacylation ribozyme variant] | 24.9 | 5.7 | 2.81 | 4.37 | 4.33 | 2.15
21 | CUACUUUAAACAAUCGAUCUG [Fam1A.1 aminoacylation ribozyme variant] | 0.815 | 0.683 | 0.768 | 0.675 | 0.852 | 0.741
22 | AUUCCCCUGGUCCUCGAGUGA [Fam2.1 aminoacylation ribozyme variant] | 42.5 | 7.24 | 3.65 | 6.08 | 6.87 | 3.77
23 | AUUACUUUGGUCAUCGAGUGA [Fam2.1 aminoacylation ribozyme variant] | 25.8 | 7.1 | 3.55 | 6.07 | 8.06 | 3.57
24 | AAGGUUGCUAAUAGUCGCAUG [Fam3.1 aminoacylation ribozyme variant] | 2.16 | 1.45 | 1.66 | 1.34 | 2 | 1.34
25 | CCACACAUCAAGCGAUCGGUC [Fam1B.1 aminoacylation ribozyme variant] | 0.766 | 0.969 | 0.954 | 1.09 | 1.38 | 1.07
26 | GAGUUUGGUAAUAGUCGCAAG [Fam3.1 aminoacylation ribozyme variant] | 3.41 | 1.73 | 1.94 | 1.75 | 2.36 | 1.55

Row | Sequence | self-aminoacylation (biotinyl-Phe-oxazolone) | self-aminoacylation (biotinyl-Leu-oxazolone) | self-aminoacylation (biotinyl-Ile-oxazolone) | self-aminoacylation (biotinyl-Met-oxazolone) | self-aminoacylation (biotinyl-Trp-oxazolone) | self-aminoacylation (biotinyl-Val-oxazolone)
27 | AAUAGCCUGGUCAUCGAGUGA [Fam2.1 aminoacylation ribozyme variant] | 18.6 | 4.95 | 4.15 | 4.77 | 7.5 | 4.05
28 | GCACACUUCAAGCAAUUGGUC [Fam1B.1 aminoacylation ribozyme variant] | 2.06 | 1.3 | 1.47 | 1.45 | 1.94 | 1.22
29 | AUUCCCCUGUUCAUCGAGUGA [Fam2.1 aminoacylation ribozyme variant] | 12.4 | 5.39 | 4.07 | 5.28 | 7.62 | 4.28
30 | AUUACGCUGGUCAUCUAGUGA [Fam2.1 aminoacylation ribozyme variant] | 27.3 | 5.42 | 3.21 | 4.83 | 6.02 | 2.89
31 | CCAGACUUCAAGCAAGCGGUC [Fam1B.1 aminoacylation ribozyme variant] | 0.523 | 1.15 | 0.87 | 0.821 | 0.843 | 0.932
32 | AAAUUUGCUGAUAGUCGCAAG [Fam3.1 aminoacylation ribozyme variant] | 2.14 | 1.86 | 1.73 | 1.97 | 2.23 | 1.69
33 | CCACACUGCGAGCAAUCGGUC [Fam1B.1 aminoacylation ribozyme variant] | 3.33 | 1.25 | 1.21 | 1.07 | 1.21 | 1.51
34 | AAGUUUACUAAUAGUAGCAAG [Fam3.1 aminoacylation ribozyme variant] | 1.97 | 1.17 | 1.54 | 1.28 | 0.98 | 1.22
35 | CCACACUUGAAGCAAUCGCUC [Fam1B.1 aminoacylation ribozyme variant] | 0.891 | 1.52 | 1.36 | 1.3 | 1.31 | 1.59
36 | CUACUUCAAACAACCCGUCUG [Fam1A.1 aminoacylation ribozyme variant] | 0.796 | 0.911 | 0.906 | 0.657 | 0.923 | 1.04
37 | CUACUUCAAACCAUCAGUCUG [Fam1A.1 aminoacylation ribozyme variant] | 1.08 | 0.762 | 0.847 | 0.695 | 0.593 | 0.768
38 | CCCCACUUCAAGAAAUCGGUC [Fam1B.1 aminoacylation ribozyme variant] | 11.6 | 1.81 | 1.36 | 1.17 | 9.76 | 1.42
39 | AUUCACCUCGGUCACCGGGUG [Fam2.2 aminoacylation ribozyme variant] | 41.9 | 6.77 | 5 | 6.37 | 8.88 | 4.43
40 | GCACACUUCAAGCAAUCUGUC [Fam1B.1 aminoacylation ribozyme variant] | 1.22 | 0.708 | 0.87 | 0.605 | 0.902 | 0.867
41 | AAUCACCUAGGUCAUGGGGUG [Fam2.2 aminoacylation ribozyme variant] | 19.4 | 4.25 | 3.44 | 3.26 | 4.91 | 3.71
42 | AAGUUUGCUAAGAGUCCCAAG [Fam3.1 aminoacylation ribozyme variant] | 1.48 | 0.765 | 0.788 | 0.787 | 1 | 0.672
43 | GUUCACCUAGGGCAUCGGGUG [Fam2.2 aminoacylation ribozyme variant] | 23.4 | 3.57 | 3.29 | 3.44 | 4.28 | 3.42
44 | CCGCACUUCAAGCAAUCGCUC [Fam1B.1 aminoacylation ribozyme variant] | 6.76 | 2.14 | 1.93 | 1.8 | 2.73 | 2.73
45 | AUUAACCUGGUCAUCGAUUGA [Fam2.1 aminoacylation ribozyme variant] | 0.76 | 0.88 | 0.963 | 0.959 | 1.15 | 0.818
46 | CUACUUAAAACAAUCGGUGUG [Fam1A.1 aminoacylation ribozyme variant] | 0.821 | 0.96 | 0.596 | 0.72 | 1.17 | 0.684
47 | CAACACUUCCAGCAAUCGGUC [Fam1B.1 aminoacylation ribozyme variant] | 0.986 | 1.1 | 1.41 | 1.1 | 1.01 | 1.26
48 | AAUUUUGCUCAUAGUCGCAAG [Fam3.1 aminoacylation ribozyme variant] | 3.17 | 1.98 | 1.85 | 1.82 | 1.69 | 1.57
49 | AUAAACCUGGUCAUCGAGUGA [Fam2.1 aminoacylation ribozyme variant] | 11.4 | 8.44 | 4.13 | 7.78 | 9.62 | 4.1
50 | AUUACCCUGCUCAUCGAGGGA [Fam2.1 aminoacylation ribozyme variant] | 0.691 | 0.858 | 1.02 | 0.947 | 0.707 | 0.905
51 | CUACUACAAACAAUCGGUAUG [Fam1A.1 aminoacylation ribozyme variant] | 0.567 | 0.454 | 0.617 | 0.597 | 0.505 | 0.584
